Patent publication US20240173352A1 (published 2024)
Blank lines part the entries; values can stand above or below the binder they belong to.

Columns and labels:
Assay in all cases: activation reporter or marker
[1] = biological target: T1, HA-1(R), allelic variant of HA-1; Rho GTPase activating protein 45 (HMHA1) peptide on HLA-A*02:01 (human)
T1 peptide: VLRDDLLEA

[2] = biological target: T2, HA-1(H), minor histocompatibility antigen HA-1 variant H; Rho GTPase activating protein 45 (HMHA1) peptide on … (human)
T2 peptide: VLHDDLLEA

[3] = biological target: T3, mH-Y (MiHA-Y) peptide on H-2Db (mouse)
T3 peptide: KCSRNRQYL

binding result [1]: no recognition
binding result [2]: recognises
B1: KP7 HA-1H TCR (TCR, V domains shown)
Valpha: KNEVEQSPQNLTAQEGEFITINCSYSVGISALHWLQQHPGGGIVSLFMLSSGKKKHGRLIATINIQEKHSSLHITASHPRDSAVYICAVRSVSGAGSYQLTFGKGTKLSVIP
Vbeta: DTGVSQNPRHKITKRGQNVTFRCDPISEHNRLYWYRQTLGQGPEFLTYFQNEAQLEKSRLLSDRFSAERPKGSFSTLEIQRTEQGDSAMYLCASSIDSFNEQFFGPGTRLTVL

binding result [3]: recognises
B2: H-Y TCRalpha P2A TCRbeta Jb2.3L (TCR, V domains shown)
Valpha: AQSVDQPDAHVTLSEGASLELRCSYSYSAAPYLFWYVQYPGQSLQFLLKYITGDTVVKGTKGFEAEFRKSNSSFNLKKSPAHWSDSAKYFCALEGQDQGGSAKLIFGEGTKLTVSS
Vbeta: EAAVTQSPRNKVAVTGGKVTLSCNQTNNHNNMYWYRQDTGHGLRLIHYSYGAGSTEKGDIPDGYKASRPSQENFSLILELATPSQTSVYFCASGDNSAETLYFGPGTRLLVL
